Results taken from US20130156770A1 (published 2013).

Legend:
Experiment in all cases: SPR (Biacore)
[1] = biological target: BC 244-C6 x CD3
[2] = biological target: BC 247-C3 x CD3
[3] = biological target: BCMA-107 x CD3

Kd [1]: 0.3 nM
Kd [2]: 0.4 nM
Kd [3]: 34.2 nM
B1: Human BCMA (receptor)
chain: MLQMAGQCSQNEYFDSLLHACIPCQLRCSSNTPPLTCQRYCNASVTNSVKGTNAILWTCLGLSLIISLAVFVLMFLLRKINSEPLKDEFKNTGSGLLGMANIDLEKSRTGDEIILPRGLEYTVEECTCEDCIKSKPKVDSDHCFPLPAMEEGATILVTTKTNDYCKSLPAALSATEIEKSISAR
